T1: LP1 peptide
T1 chain: FPSSWLQRYYLAKRR

T2: Methuselah (Mth) ectodomain, C-terminal biotinylated (Drosophila melanogaster)
T2 sequence (O97148 whole entry, looked up): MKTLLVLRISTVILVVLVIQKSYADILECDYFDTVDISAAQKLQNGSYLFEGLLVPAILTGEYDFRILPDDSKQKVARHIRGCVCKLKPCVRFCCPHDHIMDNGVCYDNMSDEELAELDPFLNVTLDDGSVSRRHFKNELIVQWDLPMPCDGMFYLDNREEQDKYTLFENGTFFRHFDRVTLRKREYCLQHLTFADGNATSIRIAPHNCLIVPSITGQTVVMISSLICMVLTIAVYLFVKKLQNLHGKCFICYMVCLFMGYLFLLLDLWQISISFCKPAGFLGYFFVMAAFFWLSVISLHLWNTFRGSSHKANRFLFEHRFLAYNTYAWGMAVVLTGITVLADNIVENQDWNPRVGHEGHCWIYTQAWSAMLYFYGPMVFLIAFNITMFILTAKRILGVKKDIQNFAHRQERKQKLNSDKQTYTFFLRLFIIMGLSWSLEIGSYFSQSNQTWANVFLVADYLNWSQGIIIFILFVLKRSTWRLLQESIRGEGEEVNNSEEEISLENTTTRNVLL

B1: Methuselah ectodomain (protein)
chain: DILECDYFDTVDISAAQKLQNGSYLFEGLLVPAILTGEYDFRILPDDSKQKVARHIRGCVCKLKPCVRFCCPHDHIMDNGVCYDNMSDEELAELDPFLNVTLDDGSVSRRHFKNELIVQWDLPMPCDGMFYLDNREEQDKYTLFENGTFFRHFDRVTLRKREYCLQHLTFADGNATSIRIAPHNCLIVPSITGQ

Target: T1, LP1 peptide
Assay: not given

Row | Kd [nM] | Binder
1 | 18 | B1

target: T2, Methuselah (Mth) ectodomain, C-terminal biotinylated (Drosophila melanogaster); assay: SPR

Row | Kd [nM] | Binder
2 | > 15000 | Ac-FPSSKLQRYYLAKRR-NH2 [LP1 W5K mutant peptide]
3 | 12000 | Ac-FPSSFLQRYYLAKRR-NH2 [LP1 W5F mutant peptide]
4 | 49.5 | Ac-FPSSWLQRFYLAKRR-NH2 [LP1 Y9F mutant peptide]
5 | 18.5 | Ac-FPSSWLQRYYLAKRR-NH2 [LP1 peptide (wild type)]
6 | 24.5 | Ac-FPSSWLQRYYQAKRR-NH2 [LP1 L11Q mutant peptide]
7 | 37.7 | Ac-FPSSWLQRYYLAKRQ-NH2 [LP1 R15Q mutant peptide]

Reference: paper PMC2900200 (2008)
